The test system of series [1] is EcSSB H55Y (Escherichia coli). The series is described as follows: optical tweezers. To be noted: 5 nM monomeric H55Y, k-b/kb, 12 pN, 50 mM Na+, 10 mM HEPES pH 7.5, room temperature, ssDNA at 12 pN unless stated, Mg2+ buffer adds 4 mM Mg2+, AFM 10 mM Na+, 10 mM Mg2+.
In series [2] the test system is EcSSB WT (Escherichia coli). The experiment in a line: optical tweezers. The conditions noted are these: 12 pN, 50 mM Na+, 10 mM HEPES pH 7.5, room temperature, ssDNA at 12 pN unless stated, Mg2+ buffer adds 4 mM Mg2+, AFM 10 mM Na+, 10 mM Mg2+.

In paper PMC7897507 one finds Kd data, which are given here for one substance.

In the case of 8.1 knt ssDNA (pBACgus11), the Kd in series [1] is 0.1 nM; in series [2] (EcSSB8 mode, fit of equilibrium fractions (Fig. 2C)), 0.04 nM; in series [2] (single-domain unwrapped EcSSB8 mode, from k-b/kb), 0.08 nM.

By Kd is commonly meant the equilibrium constant for the complex coming apart. A high value points to a looser complex.
